{"source": "paper PMC2693666", "about": "(PLoS ONE, 2009)", "binders": {"B1": {"name": "recMoDpl(26–155) (domain or fragment, mouse, UniProt Q9QUG3 26-155, looked up)", "chain": "ARGIKHRFKWNRKVLPSSGGQITEARVAENRPGAFIKQGRKLDIDFGAEGNRYYAANYWQFPDGIYYEGCSEANVTKEMLVTSCVNATQAANQAEFSREKQDSKLHQRVLWRLIKEICSAKHCDFWLERG", "notes": "also called recDpl"}, "B2": {"name": "recMoPrP(23–230) (natural protein)", "chain": "not shown"}, "B3": {"name": "recMoPrP(89–230) (domain or fragment)", "chain": "not shown"}}, "test_in_all_cases": "SPR; Biacore 2000, 20°C; […] (10 mM HEPES, 150 mM NaCl), pH 7.4, 20 µL/min; 1:1 (Langmuir) model", "settings_in_all_cases": "both partners purified", "key": {"recMoPrP(23–230)": {"target": "B2"}, "recMoPrP(89–230)": {"target": "B3"}, "recMoDpl(26–155)": {"target": "B1"}}, "data": [{"binder": "B1", "values": [{"measurement": "Kd", "setting": "recMoPrP(23–230)", "result": 11, "unit": "nM"}, {"measurement": "koff", "setting": "recMoPrP(23–230)", "result": 0.0013, "unit": "s⁻¹"}, {"measurement": "kon", "setting": "recMoPrP(23–230)", "result": 120000, "unit": "M⁻¹ s⁻¹"}, {"measurement": "Kd", "setting": "recMoPrP(89–230)", "result": 100, "unit": "nM"}, {"measurement": "koff", "setting": "recMoPrP(89–230)", "result": 0.00087, "unit": "s⁻¹"}, {"measurement": "kon", "setting": "recMoPrP(89–230)", "result": 8400, "unit": "M⁻¹ s⁻¹"}]}, {"binder": "B2", "values": [{"measurement": "stoichiometry N", "setting": "recMoDpl(26–155)", "result": 1}]}, {"binder": "B3", "values": [{"measurement": "stoichiometry N", "setting": "recMoDpl(26–155)", "result": 1}]}]}
